“Also recorded” adds a separate entry of the source. Read-outs that look alike come from different tables or passages of the source.
What was measured:
caspase 3-like activity = test: Assay of caspase 3-like activity in U2OS stable transfectants (Z-DEVD-AFC); format: cell-based
Protocol: Assay of caspase 3-like activity. Approximately 2×10^6 U2OS stable transfectants, either expressing Fortilin (U2OS.F) or harboring empty expression vector (U2OS.E), both of which have been characterized above, were challenged either with dimethyl sulfoxide (DMSO) (vehicle) or with etoposide at a final concentration of 10 μg/mL for 48 hours. Caspase 3-like activity was then determined as previously described (Mannick et al., 1999). In brief, cytosolic proteins were extracted in hypotonic cell lysis buffer (25 mM HEPES, pH 7.5, 5 mM MgCl2, 5 mM EDTA, 5 mM dithiothreitol, 0.05% phenylmethylsulfonyl fluoride [PMSF]; all from Sigma) by three cycles of freezing and thawing. The protein concentration of samples was determined by using a BioRad Bradford protein assay kit (BioRad). Ten micrograms of cytosolic extracts were added to caspase assay buffer (312.5 mM HEPES, pH 7.5, 31.25% sucrose, 0.3125% CHAPS) with Z-DEVD-AFC as substrates (CalBiochem, San Diego, Calif.). Release of 7-amido-4-(trifluoromethyl)coumarin (AFC) was quantified, after 2 hours of incubation at 37° C. (or, in the case of time course experiment, every 10 minutes), using a Fluoroskan system (Thermo-Labsystems, Helsinki, Finland) set to an excitation value of 355 nm and emission value of 525 nm. The results were expressed as relative fluorescence unit (R.F.U.) per microgram of protein.

U2OS cells [1] = test: Bax-mediated apoptosis in transfected U2OS cells (apoptotic index); format: cell-based; settings: for prevention of Bax mediated apoptosis (apoptotic index): U2OS cells cotransfected with Bax-pcDNA3, thirty hours after transfection
Protocol: The amount of LacZ-pFLAG was 1/10 to 1/20 (w/w) of total amounts of DNA added. Thirty hours after the transfection, cells were stained with X-gal. Blue cells represented cells expressing Bax, β-galactosidase and indicated proteins in question. At least 300 blue cells were counted and evaluated for plasma membrane morphology. Rounded cells were counted as apoptotic. Apoptotic index was calculated as the number of blue apoptotic cells divided by the number of total blue cells counted, expressed in percentage. Without the expression of Bax, there was a modest amount of background cell death noted (Lane 6). On the other hand, the presence of Bax caused 2 holds increase in the number of apoptotic cells (Lane 5). […] Taken together, the ability of Fortilin to inhibit Bax mediated apoptosis is mediated by its interaction with MCL1.

H1299 cells = test: p53-mediated apoptosis in transfected H1299 cells (apoptotic index); format: cell-based; settings: overexpression, thirty hours after transfection
Protocol: Because wild-type p53 can induce apoptosis, the ability of Fortilin to prevent or inhibit p53-mediated apoptosis was examined. H1299 cells were transfected with indicated combinations of mammalian expression constructs. Thirty hours after the transfection, cells were fixed and stained for beta-galactosidase activities. Cells that were round in shape with significant membrane irregularity were counted as apoptotic (FIG. 5). Apoptotic index was calculated as (Blue cells with apoptotic plasma membrane morphology)/(Total blue cells counted)×100.

HeLa cells = test: Cell death assay: etoposide-induced apoptosis in transfected HeLa cells (apoptotic index); format: cell-based; settings: HeLa cells overexpressing FLAG-tagged protein; 5 μg/mL etoposide 12 hours
Protocol: Cell death assay: The experiment was performed in duplicate and repeated at least three times. A total of […] HeLa cells were seeded in each well of a 4-well Lab-Teck™ chamber slides (Nalge Nunc International), and transfected with pFLAG containing Fortilin or other control cDNAs, using FuGENE6 (Roche). Twenty-four hours after the transfection, the cells were challenged by 5 μg/mL etoposide for 12 hours. Cells were stained for the FLAG-epitope using anti-FLAG antibody (M2, Sigma Co) and anti-mouse IgG conjugated to Rhodamine Red X (Jackson ImmunoResearch Laboratories). The nuclei were stained with DAPI (4,6-Diamidino-2-phenylindole, Sigma Co). Cells were then examined under a Zeiss AXIOSKOP fluorescent microscope (Carl Zeiss Ltd.), using appropriate filter sets. Cells that emitted red fluorescence were evaluated for their nuclear morphology. Condensed or fragmented nuclei were counted as apoptotic. An apoptotic index was then calculated as the number of red cells with apoptotic nuclear morphology divided by the number of total red cells counted and multiplied by 100.
Statistical analysis: For the analysis of statistical significance of apoptotic indices among cells transfected with different plasmids, Dunnett's T tests were performed. In all cases, the confidence intervals were 0.95 with the alpha value of 0.05. For the statistical evaluation of the significant linear trend between the amount of plasmids used for the transfection and apoptotic indices, ANOVA (Analysis of Variance) regression analysis was employed. […] For the analysis of statistical significance of possible correlation between the degree of malignancy and the indices of Fortilin immunoreactivity, Dunnett's multiple range tests were performed.

[2] = system: p53 transactivation of Bax gene; test: p53 transactivation of Bax gene, p-Bax-RE-Luc luciferase reporter in H1299 cells; format: cell-based; settings: twenty-four hours after transfection
Protocol: The ability of Fortilin to interfere with transactivation of the Bax gene by p53 was investigated. Non-small cell lung cancer cell line H1299 cells were transfected with p53-pcDNA3, LacZ-pFLAG, p-Bax-RE-Luc (a plasmid encoding the Luciferase gene under the control of the Bax responsive element) and pFLAG vector encoding Bcl-2, MCL1, Fortilin or truncated Fortilin as indicated in FIG. 6. Twenty-four hours after the transfection, luciferase activity was measured and normalized to the β-galactosidase activity, the latter representing transfection efficiency.
Next, studies were conducted to determine whether the inhibition was dosage dependent. H1299 cells were transfected with p53-pcDNA3, LacZ-pFLAG, p-Bax-RE-Luc and various amount of Fortilin-pFLAG. The total amount of DNA added was adjusted by the addition of empty pFLAG vector. Twenty-four hours after the transfection, luciferase activity was measured and normalized to the β-galactosidase activity.

U2OS cells [3] = settings: U2OS stable transfectants of HA-tagged Fortilin or deletion mutants, 5 μg/mL etoposide 48 hours
Source text: Generation and characterization of U2OS cells stably expressing Fortilin. U2OS cells were transfected with empty pcDNA6, a mammalian expression vector containing a blasticidine resistance gene (Invitrogen, Carlsbad, Calif.), or with pcDNA6 vector encoding wild-type Fortilin, by using FuGENE6 (Roche Molecular Biochemicals) according to the manufacturer's instructions. Transfected cells were selected for approximately 3 weeks and characterized by Western blot analysis. For the cytotoxicity assay, U2OS cells stably expressing wild-type Fortilin (U2OS.F) and U2OS cells stably harboring empty pcDNA6 (U2OS.E) were seeded in a 96 well plate in quadruplicate. For the investigation of dose response, cells were challenged with various concentrations of etoposide (0-20 μg/mL) for 48 hours. For the time course study, cells were challenged with 5 μg/mL of etoposide and harvested after various incubation periods (0-96 hours). In both cases, the cell media were assayed for the lactate dehydrogenase (LDH) activity released from the cytosol of damaged cells, using a cytotoxicity detection kit (Roche Molecular Biochemicals) according to the manufacturer's instructions. The cytotoxicity index was calculated as follows: (LDH activity in the media−background LDH activity)÷(LDH activity in the medium of cells lysed by 1% Triton X-100−background LDH activity)×100.
Cell death assay. U2OS cells stably expressing Fortilin or its mutants were seeded in 96-well plates in triplicate. Cells were then challenged with 5 μg/mL of etoposide (Sigma) for 48 hours. Then the cell media were assayed for the lactate dehydrogenase (LDH) activity released from the cytosol of damaged cells, using a Cytotoxicity Detection Kit (Roche Molecular Biochemicals), according to the manufacturer's instructions. The cytotoxicity index was calculated as follows: (LDH activity in the media−background LDH activity)/(LDH activity in the medium of the cells lysed by 1% Triton X-100−background LDH activity)×100.
Statistical analysis. For analysis of the statistical significance of differences in cytotoxicity indices among cells stably transfected with Fortilin, its mutants or control plasmids, Student's t-test was performed using a commercial software (Minitab Inc., State College, Pa.). In all cases, a P-value less than 0.05 was considered to be statistically significant.

MCL1 [4] = molecular target: T1, MCL1 (Homo sapiens, UniProt Q07820); test: Yeast two-hybrid assay, X-gal filter lift; format: binding; settings: Saccharomyces cerevisiae SFY526 cells
Source text: Yeast two-hybrid assay. Saccharomyces cerevisiae SFY526 cells (CloneTech) were cotransformed with (a) empty pAS2.1 vector or pAS2.1 vector containing a full-length MCL1 construct and (b) empty pACT2 vector or pACT2 vector containing FL1, the original clone isolated from yeast two-hybrid screening and representative of the nearly full-length Fortilin molecule (amino acids 5-172). FL1 was redesignated as FortilinΔ5-172. Transformed cells were selected on SD plates lacking tryptophan and leucine (SD/-Trp/-Leu plates) for 7 days and subjected to a X-gal filter lift assay as described above. The blue color that developed within 8 hours was considered to represent a positive interaction.
The yeast two-hybrid system was employed to evaluate any interaction between Fortilin and MCL1. Saccharomyces cerevisiae SFY526 cells were co-transformed with pAS2.1 or pAS2.1-MCL1 and pGAD GH or pGAD GH-FL1, the 5th-172st amino acids of Fortilin. Transformed cells were selected on SD/-Trp/-Leu plates. Grown colonies on these selection plates were subjected to a X-gal filter lift assay, as the reporter gene was […] under the control of a promoter containing the element recognized by the DNA binding domain. […] MCL1 consists of four BH (Bcl-2 homology) domains and two PEST (proline (P), glutamic acid (E), serine (S) and threonine (T)) sequences. “CHT” denotes the C-terminus Hydrophobic Tail. […]

MCL1 [5] = molecular target: T1, MCL1; test: In vitro pull-down assay of HA-tagged Fortilin or mutants with MCL1; format: binding; settings: in vitro translated 35S-labeled proteins, anti-HA pull-down
MCL1 [6] = molecular target: T1, MCL1; test: In vivo coimmunoprecipitation assay in U2OS stable transfectants of Fortilin and mutants; settings: anti-HA immunoprecipitation
Source text: In vivo coimmunoprecipitation assay. COS-7 cells (2.5×10^6) were cotransfected with pcDNA3-Fortilin-HA or pcDNA3 and with FLAG-MCL1/pFLAG-CMV or pFLAG-CMV vectors using FuGENE6 (Roche Molecular Biochemicals), according to the manufacturer's instructions. […] Formed complexes were precipitated by sheep anti-rat antibodies conjugated to Dynabead™ (Dynal USA); washed with Buffers A and B; eluted into SDS gel loading buffer; and subjected to SDS-PAGE, Western blot transfer and immuodetection with anti-HA (16B12; Covance, Richmond, Calif.) and anti-FLAG (M2; Sigma) antibodies. […] Cells were harvested by scraping, washed with chilled PBS, suspended in Buffer C (Buffer A supplemented with 0.02% NP-40), and lysed by a nitrogen cavitation method (PARR Instrument Co). […] Formed complexes were precipitated by sheep anti-rat antibodies conjugated to Dynabeads™ (Dynal USA); washed with Buffers C; eluted into SDS gel loading buffer; and subjected to SDS-PAGE, Western blot transfer and immuodetection with anti-HA (16B12; Covance, Richmond, Calif.) and anti-MCL1 (Santa Cruz Biotechnology) antibodies.

T1 sequence (Q07820 whole entry, the tested form may be a part): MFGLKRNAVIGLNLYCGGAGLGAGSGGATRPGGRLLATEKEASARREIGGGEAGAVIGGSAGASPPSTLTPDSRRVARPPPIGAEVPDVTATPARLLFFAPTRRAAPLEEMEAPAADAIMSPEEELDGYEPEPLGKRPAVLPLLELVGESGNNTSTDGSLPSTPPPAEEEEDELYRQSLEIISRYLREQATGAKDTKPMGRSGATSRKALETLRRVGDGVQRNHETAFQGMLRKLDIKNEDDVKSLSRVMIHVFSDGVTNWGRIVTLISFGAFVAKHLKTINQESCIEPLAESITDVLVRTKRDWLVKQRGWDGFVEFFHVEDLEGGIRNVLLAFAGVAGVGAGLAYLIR

## COc1cc([C@@H]2c3cc4c(cc3[C@@H](O[C@@H]3O[C@@H]5CO[C@@H](C)O[C@H]5[C@H](O)[C@H]3O)[C@H]3COC(=O)[C@H]23)OCO4)cc(OC)c1O [etoposide, reference compound]
Caspase 3-like activity; control U2OS.E cells (empty vector), etoposide 10 μg/mL 48 hours
  caspase-3-like activity index: 1488.1±58.7 R.F.U./μg protein
Caspase 3-like activity; control U2OS.E cells, etoposide challenge vs no etoposide
  increase in caspase-3-like activity: 9.4 fold

## Bax: pro-apoptotic protein expressed from Bax-pcDNA3 to induce apoptosis [reference compound]
U2OS cells [1]; U2OS cells, Bax expression versus without Bax
  increase in the number of apoptotic cells: 2 holds

## Bcl-2: anti-apoptotic protein overexpressed as comparator [reference compound]
H1299 cells
  suppression of p53 induced apoptosis (apoptotic index): statistically significant (p<0.001) suppression of p53-induced apoptosis; also recorded: statistically significant (p<0.001) suppression of p53 induced apoptosis

## Bcl-xL: a Bcl-2 family protein, overexpressed as anti-apoptotic comparator
HeLa cells
  prevention of Etoposide-induced apoptosis (apoptotic index): prevented HeLa cells from undergoing Etoposide-induced apoptosis in a statistically significant fashion

## MCL1: Myeloid Cell Leukemia 1, a Bcl-2 homologue, anti-apoptotic protein [reference compound]
[2]
  inhibition of p53 transactivation of Bax gene (luciferase normalized to β-galactosidase): inhibited p53 transactivation of the Bax gene
HeLa cells
  prevention of Etoposide-induced apoptosis (apoptotic index): prevented HeLa cells from undergoing Etoposide-induced apoptosis in a statistically significant fashion
U2OS cells [1]
  prevention of Bax mediated apoptosis (apoptotic index): prevented cells from undergoing Bax mediated apoptosis
H1299 cells
  suppression of p53 induced apoptosis (apoptotic index): statistically significant (p<0.001) suppression of p53-induced apoptosis; also recorded: statistically significant (p<0.001) suppression of p53 induced apoptosis

B1: FortilinΔ5-172: nearly full-length Fortilin molecule (amino acids 5-172) (protein)
chain: RDLISHDEMFSDIYKIREIADGLCLEVEGKMVSRTEGNIDDSLIGGNASAEGPEGEGTESTVITGVDIVMNHHLQETSFTKEAYKKYIKDYMKSIKGKLEEQRPERVKPFMTGAAEQIKHILANFKNYQFFIGENMNPDGMVALLDYREDGVTPYMIFFKDGLEMEKC
modifications: left off: small tags and cut ends
U2OS cells [3]
  cytotoxicity index relative to control transfectants: significantly lower
U2OS cells [3]; listed as fortilinΔ5-172
  cytotoxicity index relative to control transfectants: significantly lower than the cytotoxicity index of control cells
MCL1 [4]
  interaction with MCL1 in yeast (X-gal activity): X-gal activity was observed
MCL1 [5]
  interaction / co-immunoprecipitation with MCL1 in vitro: interacted
MCL1 [5]; listed as Fortilin (5-172)
  interaction / co-immunoprecipitation with MCL1 in vitro: co-immunoprecipitated MCL1 in vitro
MCL1 [6]
  co-immunoprecipitation of MCL1 in vivo: co-immunoprecipitated MCL1

B2: FortilinΔ23-172: mutant of Fortilin representing 23rd-172nd amino acids of Fortilin (protein)
chain: IADGLCLEVEGKMVSRTEGNIDDSLIGGNASAEGPEGEGTESTVITGVDIVMNHHLQETSFTKEAYKKYIKDYMKSIKGKLEEQRPERVKPFMTGAAEQIKHILANFKNYQFFIGENMNPDGMVALLDYREDGVTPYMIFFKDGLEMEKC
U2OS cells [3]
  cytotoxicity index relative to control transfectants: could not prevent cells from undergoing etoposide-induced cell death and instead sensitized the cells to etoposide-induced cell death
U2OS cells [3]; listed as fortilinΔ23-172
  cytotoxicity index relative to control transfectants: significantly higher than that of control cells
[2]; listed as truncated Fortilin (23-172)
  inhibition of p53 transactivation of Bax gene (luciferase normalized to β-galactosidase): inhibited p53 transactivation of the Bax gene
U2OS cells [1]
  prevention of Bax mediated apoptosis (apoptotic index): failed to prevent cells from undergoing Bax mediated apoptosis
H1299 cells; listed as Fortilin(23-172)
  suppression of p53 induced apoptosis (apoptotic index): did not significantly prevent p53-mediated apoptosis; also recorded: did not significantly prevent p53 mediated apoptosis

B3: FortilinΔ46-172: Fortilin deletion mutant that lacks 26% of wild type Fortilin (protein)
chain: SLIGGNASAEGPEGEGTESTVITGVDIVMNHHLQETSFTKEAYKKYIKDYMKSIKGKLEEQRPERVKPFMTGAAEQIKHILANFKNYQFFIGENMNPDGMVALLDYREDGVTPYMIFFKDGLEMEKC
modifications: left off: small tags and cut ends
notes: Fortilin deletion mutant that lacks 26% of wild type Fortilin
U2OS cells [3]
  cytotoxicity index relative to control transfectants: significantly lower than the cytotoxicity index of control cells
U2OS cells [3]; listed as FortilinΔ45-172
  cytotoxicity index relative to control transfectants: still capable of protecting cells, albeit modestly, from etoposide-induced cell death
